Read-outs that look alike come from different tables or passages of the source.

Data set [1] is described as follows: Mass balance study (urine, feces, expired air, carcass). Conditions: initial 3 days after dosing; single IV 5 mg·kg^−1.
Source text: Radioactivity in diluted formulations, plasma, urine, and expired air (CO2-absorbent solution) was quantitated by mixingwith liquid scintillator Hionic-Fluor (PerkinElmer Life and Analytical Sciences) followed by liquid scintillation counting (LSC). Solid samples were homogenized (10 or 20% w/v in distilled water) before combustion in a sample oxidizer (A030701; PerkinElmer Life and Analytical Sciences) with Carbo-Sorb E (PerkinElmer Life and Analytical Sciences) as a carbon dioxide absorbent and Permafluor E^+ (PerkinElmer Life and Analytical Sciences) as a liquid scintillator. Total captured radioactivity was subsequently measured via LSC.
Urine and feces were collected at 24-h intervals up to 14 days after dosing and expired air was collected up to 24 h after dosing. The levels of radioactivity in urine and expired air were measured by LSC and in feces by LSC following combustion. After the final collection of excreta at 2 weeks, the animals were sacrificed and the carcasses were dissolved in potassium hydroxide/distilled water/ethanol (3:3:7, w/v/v), and examined for residual radioactivity by LSC.
The conditions of data set [2]: cited from earlier work. How it is done:
Erythropoietin is deficient in patients with CKD-associated anemia. Administration of ESAs, such as peginesatide, leads to activation of the appropriate signaling at the EPO receptor ([Fan et al. 2006]). […] The principal findings in the single and repeat dose toxicity studies are primarily attributed to the pharmacological effects of peginesatide and secondary sequelae when an ESA is administered to an initially nor ...

Data set [3] is described as follows: In vivo metabolite profiling, plasma and tissues at 14 days. Details: species or system male Sprague-Dawley rats. Conditions: single IV 5 mg/kg [^14C]-peginesatide; HPLC fractions/LSC; n = 3.
Data set [4] in a line: Plasma total radioactivity pharmacokinetics after single IV [^14C]-peginesatide (LSC). It is filed as in vivo, male Sprague-Dawley rats. Conditions: single 5 mg-kg^-1 IV [^14C]-peginesatide, n=3. How it is done: Total captured radioactivity was subsequently measured via LSC.
The plasma samples were analyzed for total radioactivity using LSC.
Noncompartmental PK parameters for peginesatide and metabolites were generated using WinNonlin ver. 4.0, Pharsight Corporation (Mountain View, CA). The maximum plasma concentration (Cmax) and their times of occurrence (tmax) were obtained directly from the mean plasma concentration vs. time profiles. The areas under the plasma concentration-time curves […] were estimated by the linear trapezoidal rule - by adding all the area portions under the curve from time zero to the time of the last observed plasma concentration (tn). Elimination rate constants (kz) were estimated by fitting a linear regression of log mean concentration against time data in the terminal exponential phase (at least 3 data points). Apparent terminal half-life (t1/2) was calculated as In2/λz. The AUC0-inf was calculated as the sum of AUC0-t and Cobs/λz, where Cobs, was the actual concentration at the time of the last quantifiable concentration. The plasma clearance (CL) for peginesatide was estimated as the ratio of dose/ AUC0-inf. The mean residence time (MRT) was calculated as the ratio of AUMC0-inf/AUC0-inf, where AUMC0-inf was the area under the first moment curve from the time zero to infinity. The volume of distribution at steady state (Vss) was estimated as CL x MRT.

The nature of data set [5]: Radioactivity in plasma, skin and eyes of pigmented vs albino rats (affinity for melanin). It is filed as in vivo, male Long Evans (pigmented) rats. Conditions: single IV 5 mg·kg^−1 [^14C]-peginesatide; through 60 days; LSC; n=3 per time point. The protocol: Male Sprague-Dawley (albino) rats (n = 21; three per time point) were administered a single IV dose of 5 mg·kg^−1 [^14C]-peginesatide (27.5 μCi/kg) and tissue concentrations of radioactivity determined at 0.25, 6, and 24 h, and 7,14,30 and 60 days following dosing. Similarly, male Long Evans (pigmented) rats (n = 21; three per time point) were administered a single IV dose of 5 mg-kg^−1 [^14C]-peginesatide and plasma, skin, and eye concentrations of radioactivity were measured at the various time points through 60 days after dosing. At each time point, blood was collected, the animals sacrificed, and tissues excised. Tissues collected from the Sprague-Dawley rats included blood, plasma, adrenals, bone marrow, brain, eyes, fat, femur, Harderian glands, heart, hypophysis, intestine, kidneys, lungs, liver, pancreas, skeletal muscle, skin, spinal cord, spleen, stomach, submaxillary glands, testes, thymus, thyroid gland, and urinary bladder. Plasma, eyes, non-pigmented skin, and pigmented skin were collected from Long Evans rats. All tissue samples were measured for radioactivity by LSC following combustion. […] The concentration of radioactivity in the blood, plasma, and tissues was calculated and expressed as ug equiv·g^-1 or mLbased on the LSC counts and the specific activity of the dosing solution.

As to Peginesatide, in data set [1], the “fecal recovery of the total radioactive dose” value is 5 % of the total radioactive dose. Further, the “urinary recovery of the total radioactive dose” value in data set [1] is 23 % of the total radioactive dose. Also, the “reticulocytes and hemoglobin levels” value was “dose-dependent increases in reticulocytes and hemoglobin levels” in data set [2] (single IV administration in humans, ref Stead et al. 2006); “dose-dependent increases in reticulocytes and hemoglobin levels” in data set [2] (single IV administration in rats, ref Fan et al. 2006). For the same substance, the “Day 14 concentration, Kidneys” value in data set [3] is reported as 2.64 μg equiv·g^−1 or mL. The “Cmax, total radioactivity” value in data set [4] is listed as 150 ug equiv·mL^−1. Further, the “association with melanin (kinetics in plasma, skin and eyes of pigmented vs non-pigmented rats)” value in data set [5] was “neither peginesatide nor the other radioactive components associated with melanin”.

The values above are taken from publication PMC3409459, “Absorption, distribution, metabolism and excretion of peginesatide, a novel erythropoiesis-stimulating agent, in rats” (Xenobiotica; the Fate of Foreign Compounds in Biological …, 2011).
